Literature values as cited in article PMC4586255.
Where two headings read alike, the source gives them in different places.

Legend:
PCNA (Homo sapiens) [1] = target: PCNA (Homo sapiens) (UniProt P12004)
PCNA (Homo sapiens) [2] = target: PCNA (Homo sapiens) (UniProt P12004); remark: listed apart in the source

Chain of PCNA (Homo sapiens) (P12004 whole entry): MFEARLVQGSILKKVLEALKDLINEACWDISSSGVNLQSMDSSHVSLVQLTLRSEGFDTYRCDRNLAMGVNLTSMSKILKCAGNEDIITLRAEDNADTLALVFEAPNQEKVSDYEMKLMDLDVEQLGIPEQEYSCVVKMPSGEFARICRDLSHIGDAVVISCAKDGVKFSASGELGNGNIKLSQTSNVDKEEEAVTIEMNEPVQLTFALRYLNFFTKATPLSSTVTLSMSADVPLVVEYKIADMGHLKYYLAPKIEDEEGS
Chain of FEN1 PIP-box peptide PIP-box peptide (P39748 331-350): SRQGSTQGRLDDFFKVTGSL
Chain of p21 PIP-box peptide PIP-box peptide (P38936 139-160): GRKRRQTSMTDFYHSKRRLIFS

FEN1 PIP-box peptide PIP-box peptide (from UniProt P39748)
Kd (PCNA (Homo sapiens) [1]): 59 µM

p21 PIP-box peptide PIP-box peptide (from UniProt P38936)
Kd (PCNA (Homo sapiens) [2]): 0.082 µM
